According to article PMC10809841, “Transferrin Is Up-Regulated by Microbes and Acts as a Negative Regulator of Immunity to Induce Intestinal Immunotolerance” (Research, 2024):

B1: cluster of differentiation 14 (CD14) (receptor, UniProt P08571 20-345, looked up)
chain: TTPEPCELDDEDFRCVCNFSEPQPDWSEAFQCVSAVEVEIHAGGLNLEPFLKRVDADADPRQYADTVKALRVRRLTVGAAQVPAQLLVGALRVLAYSRLKELTLEDLKITGTMPPLPLEATGLALSSLRLRNVSWATGRSWLAELQQWLKPGLKVLSIAQAHSPAFSCEQVRAFPALTSLDLSDNPGLGERGLMAALCPHKFPAIQNLALRNTGMETPTGVCAALAAAGVQPHSLDLSHNSLRATVNPSAPRCMWSSALNSLNLSFAGLEQVPKGLPAKLRVLDLSCNRLNRAPQPDELPEVDNLTLDGNPFLVPGTALPHEGSMN
notes: CD14, TLR coreceptor; isolated protein used in SPR and native gel; Probably a soluble recombinant CD14; also called WT-CD14; wild-type CD14
B2: peptide TC6 (peptide)
peptide: TTPEPC
notes: designed peptide TC6; also called interference peptide TC6

What was measured:
[1] = molecular target: T1, transferrin (UniProt P02787 20-698); assay: SPR; BIAcore 2000; transferrin coupled at a CM5 sensor chip, CD14 flowed over; details in the Supplementary Materials (not shown); settings: both partners purified
T1 construct: transferrin (serotransferrin), the iron transporter of serum; probably the mature plasma protein; also called Tf; WT-Tf
T1 sequence (P02787 20-698): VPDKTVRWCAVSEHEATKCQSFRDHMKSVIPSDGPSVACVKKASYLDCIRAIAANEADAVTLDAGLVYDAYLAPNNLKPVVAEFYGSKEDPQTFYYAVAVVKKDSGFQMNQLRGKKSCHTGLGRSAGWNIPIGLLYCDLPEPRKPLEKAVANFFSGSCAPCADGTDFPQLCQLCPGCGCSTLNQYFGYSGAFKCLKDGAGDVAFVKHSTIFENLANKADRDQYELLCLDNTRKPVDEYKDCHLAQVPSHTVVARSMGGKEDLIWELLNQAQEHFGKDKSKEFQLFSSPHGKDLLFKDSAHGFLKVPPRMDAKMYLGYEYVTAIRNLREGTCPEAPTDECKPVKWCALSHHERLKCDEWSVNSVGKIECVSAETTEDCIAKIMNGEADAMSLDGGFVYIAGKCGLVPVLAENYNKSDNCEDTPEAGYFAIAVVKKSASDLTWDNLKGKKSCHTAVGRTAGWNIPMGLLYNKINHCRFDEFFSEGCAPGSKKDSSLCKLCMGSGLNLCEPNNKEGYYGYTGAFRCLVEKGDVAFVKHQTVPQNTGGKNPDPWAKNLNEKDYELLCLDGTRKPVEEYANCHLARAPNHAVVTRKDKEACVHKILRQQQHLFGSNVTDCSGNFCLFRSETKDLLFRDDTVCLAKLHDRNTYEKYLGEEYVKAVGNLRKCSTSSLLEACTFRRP

[2] = molecular target: T1, transferrin; assay: not stated; direct binding of TC6 (Fig. S9C to E); method not given

Row | Binder | Kd [1] [nM] | koff [1] [s⁻¹] | kon [1] [M⁻¹ s⁻¹] | Kd [2] [nM]
1 | B1 | 14 | 0.00033 | 24000 | –
2 | B2 | – | – | – | 13
